Assay results reported in publication PMC10445733.

Legend:
Test in all cases: GST pulldown (co-precipitation), anti-HA western blot band quantification
[1] = biological target: ESCRT-I complex: GST–TSG101 (m6) + Myc–VPS28 + HA–VPS37C (m11); conditions: input 1%, value = UMAD1 pulldown band intensity / input band intensity, parent: 2.1
[2] = biological target: ESCRT-I complex: GST–TSG101 (m6) + Myc–VPS28 + HA–VPS37B (m10); conditions: input 1%, value = UMAD1 pulldown band intensity / input band intensity, parent: 2.4
[3] = biological target: ESCRT-I complex: GST–TSG101 (m6) + Myc–VPS28 + HA–VPS37D (m12); conditions: input 1%, value = UMAD1 pulldown band intensity / input band intensity, parent: 0.3

Question: Which results are given for HA–UMAD1 (from UniProt C9J7I0) E130A?
Answer: response ([1]; 293T cells co-transfected with GST–TSG101, Myc–VPS28, HA–VPS37C and HA–UMAD1 M4): 0.4; response ([2]; 293T cells co-transfected with GST–TSG101, Myc–VPS28, HA–VPS37B and HA–UMAD1 M4): 0.2; response ([3]; 293T cells co-transfected with GST–TSG101, Myc–VPS28, HA–VPS37D and HA–UMAD1 M4): 0

Question: With HA–UMAD1 (from UniProt C9J7I0) F127A as the substance, how does the response ([1]; 293T cells co-transfected with GST–TSG101, Myc–VPS28, HA–VPS37C and HA–UMAD1 M3) read?
Answer: 1.2

Question: And the response ([2]; 293T cells co-transfected with GST–TSG101, Myc–VPS28, HA–VPS37B and HA–UMAD1 M3)?
Answer: 1.2

Question: What about the response ([3]; 293T cells co-transfected with GST–TSG101, Myc–VPS28, HA–VPS37D and HA–UMAD1 M3) of the same substance?
Answer: 0

Question: Which response ([1]; 293T cells co-transfected with GST–TSG101, Myc–VPS28, HA–VPS37C and HA–UMAD1 M1) does the source give for “HA–UMAD1 (from UniProt C9J7I0) V89A; P90A; F91A” here?
Answer: 0

Question: And the response ([2]; 293T cells co-transfected with GST–TSG101, Myc–VPS28, HA–VPS37B and HA–UMAD1 M1)?
Answer: 0

Question: What about the response ([3]; 293T cells co-transfected with GST–TSG101, Myc–VPS28, HA–VPS37D and HA–UMAD1 M1) of the same substance?
Answer: 0

Question: What does the source list for HA–UMAD1 (from UniProt C9J7I0) Y125A?
Answer: response ([1]; 293T cells co-transfected with GST–TSG101, Myc–VPS28, HA–VPS37C and HA–UMAD1 M2): 0.6; response ([2]; 293T cells co-transfected with GST–TSG101, Myc–VPS28, HA–VPS37B and HA–UMAD1 M2): 0.4; response ([3]; 293T cells co-transfected with GST–TSG101, Myc–VPS28, HA–VPS37D and HA–UMAD1 M2): 0
